Measured values from the supplement of paper PMC11136658.

System: peptide library, one residue held at a place counted from the Y acceptor
Experiment: relative phosphorylation of the sub-library (ratio to the mean residue at this position); higher = residue favoured
Outline: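 Peptide library mixtures, biotinylated and centred on Tyr, each fixed one residue at one position from −5 to +5. Purified recombinant kinases were incubated with them for 90 min in 384-well plates alongside 50 μM ATP and γ-32P-ATP, and the captured, rinsed peptides on streptavidin membranes were measured by phosphorimaging and ImageQuant. Normalization divided each position's intensities by the sum of its 18 randomized residues (16 for the Ser/Thr-free library) and multiplied by that number, so that values give phosphorylation relative to the mean randomized residue.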

Sequence of PDHK1, construct: Full length, human (Q15118 whole entry, looked up): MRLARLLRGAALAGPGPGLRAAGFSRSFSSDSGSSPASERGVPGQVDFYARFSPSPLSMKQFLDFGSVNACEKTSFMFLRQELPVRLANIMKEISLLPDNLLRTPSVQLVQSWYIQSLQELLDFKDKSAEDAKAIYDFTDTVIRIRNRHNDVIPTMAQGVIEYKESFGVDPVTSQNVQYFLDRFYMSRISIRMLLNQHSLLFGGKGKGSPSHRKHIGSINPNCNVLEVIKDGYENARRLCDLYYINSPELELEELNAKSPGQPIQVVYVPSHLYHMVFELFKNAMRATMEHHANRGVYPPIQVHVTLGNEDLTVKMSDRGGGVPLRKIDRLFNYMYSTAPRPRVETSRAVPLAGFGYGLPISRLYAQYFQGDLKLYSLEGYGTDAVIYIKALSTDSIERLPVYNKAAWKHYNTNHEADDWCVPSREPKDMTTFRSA
Sequence of PDGFRB, construct: aa557-end, human (P09619 557-1106, looked up): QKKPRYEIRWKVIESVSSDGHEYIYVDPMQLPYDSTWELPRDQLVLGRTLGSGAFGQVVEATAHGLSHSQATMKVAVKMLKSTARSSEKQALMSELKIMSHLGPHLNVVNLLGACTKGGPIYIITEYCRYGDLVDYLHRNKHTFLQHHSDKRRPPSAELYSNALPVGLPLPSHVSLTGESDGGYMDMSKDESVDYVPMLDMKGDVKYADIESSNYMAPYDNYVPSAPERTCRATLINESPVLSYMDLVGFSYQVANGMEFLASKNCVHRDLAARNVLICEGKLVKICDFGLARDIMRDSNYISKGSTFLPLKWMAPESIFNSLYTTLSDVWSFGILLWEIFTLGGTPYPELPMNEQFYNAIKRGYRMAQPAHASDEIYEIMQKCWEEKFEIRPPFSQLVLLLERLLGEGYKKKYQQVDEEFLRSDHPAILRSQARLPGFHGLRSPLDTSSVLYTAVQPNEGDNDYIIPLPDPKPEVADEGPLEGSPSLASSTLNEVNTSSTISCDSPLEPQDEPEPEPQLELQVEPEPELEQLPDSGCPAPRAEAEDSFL
Sequence of PDHK3, construct: Full length, human (Q15120 whole entry, looked up): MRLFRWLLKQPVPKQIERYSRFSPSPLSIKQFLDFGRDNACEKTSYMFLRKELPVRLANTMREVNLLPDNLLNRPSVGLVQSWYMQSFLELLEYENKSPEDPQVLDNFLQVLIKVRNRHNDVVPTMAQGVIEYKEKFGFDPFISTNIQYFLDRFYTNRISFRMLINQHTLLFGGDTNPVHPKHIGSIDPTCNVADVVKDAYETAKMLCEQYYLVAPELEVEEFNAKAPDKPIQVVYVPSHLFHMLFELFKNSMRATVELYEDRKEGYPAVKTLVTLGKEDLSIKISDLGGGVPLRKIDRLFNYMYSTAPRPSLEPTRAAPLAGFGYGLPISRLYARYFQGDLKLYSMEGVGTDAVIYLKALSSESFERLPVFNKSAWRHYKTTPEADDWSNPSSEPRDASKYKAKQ

PDGFRB, construct: aa557-end, human (from UniProt P09619)
relative phosphorylation
Conditions	at +1	at +2	at +3	at +4	at +5	at -1	at -2	at -3	at -4	at -5
A fixed	1.1	0.618	0.621	0.809	0.959	0.751	0.921	0.883	1.02	0.916
D fixed	0.263	0.542	0.332	0.816	0.825	1.46	0.994	1.26	1.11	1.13
E fixed	0.377	0.815	0.245	0.817	0.757	0.988	1.08	1.26	0.996	1.12
F fixed	1.49	1.41	1.54	0.86	0.93	1.33	0.75	0.807	1.01	0.902
G fixed	0.536	0.452	0.617	1.01	1.11	0.532	1.18	1.03	1.15	1.11
H fixed	1.25	0.986	0.975	1.25	1.04	1.96	1.27	1.08	1.08	1.08
I fixed	1.91	1.04	2.13	0.898	0.769	1.12	0.745	0.707	0.816	0.877
K fixed	0.561	1.02	0.776	1.17	1.15	0.534	1.02	0.997	1.05	1.06
L fixed	0.96	1.12	1.57	0.854	0.906	0.898	0.88	0.752	0.793	0.843
M fixed	0.964	1.2	1.3	0.978	0.852	0.818	0.76	0.857	0.816	0.892
N fixed	0.451	0.899	0.775	0.976	1.12	1.58	1.28	1.31	1.03	1.12
P fixed	0.259	0.732	0.857	0.909	1.08	0.742	1.05	1.08	1.16	0.995
Q fixed	1.05	0.969	0.715	1.14	1	1.11	1.23	1.12	1.14	1.21
R fixed	0.668	1.67	1.09	1.5	1.41	0.56	1.2	1.19	1.14	1.37
S fixed	0.828	0.663	0.733	0.958	1.2	0.696	1.16	1.08	0.87	0.916
T fixed	1.27	0.75	0.711	0.965	0.96	0.872	0.958	0.923	0.759	0.76
V fixed	2.65	0.96	1.58	0.881	0.768	1.05	0.752	0.744	0.776	0.721
W fixed	1.41	2.14	1.42	1.2	1.15	0.997	0.787	0.924	1.28	0.986
pThr fixed	0.867	0.439	0.272	0.505	0.575	0.682	0.836	0.865	0.87	0.845
pTyr fixed	1.15	1.84	0.4	0.809	0.751	1.06	1.08	1.19	1.29	1.01

PDHK1, construct: Full length, human (from UniProt Q15118)
relative phosphorylation
Conditions	at +1	at +2	at +3	at +4	at +5	at -1	at -2	at -3	at -4	at -5
A fixed	0.893	0.682	0.8	0.868	0.717	0.76	1.54	0.847	0.895	0.845
D fixed	1.27	1.58	1.3	1.3	1.52	1.58	1.19	1.2	1.32	1.24
E fixed	1.12	1.17	1.41	1.16	1.27	1.96	1.24	1.06	1.26	1.34
F fixed	0.897	1.29	0.991	0.899	0.97	0.627	0.764	0.933	1.06	1.01
G fixed	1.04	0.92	1.02	1.16	1.1	0.971	1.17	1.03	1.06	0.973
H fixed	1.2	1.02	1.03	1.17	1.08	0.937	0.903	1.01	1	1.14
I fixed	0.779	0.704	0.862	0.895	0.845	0.938	0.71	0.72	0.755	0.844
K fixed	0.785	0.938	0.809	0.891	0.784	0.819	0.827	0.912	0.865	0.974
L fixed	0.844	0.863	0.78	0.907	0.838	0.888	0.72	0.93	0.881	0.906
M fixed	1.18	0.882	1.03	0.911	0.873	0.794	0.826	0.843	0.914	0.837
N fixed	1.1	1.02	1.01	0.982	1.04	1.03	1.01	1.01	0.997	1.03
P fixed	0.925	1.1	0.981	1.16	0.898	0.974	1.73	1.06	0.91	0.945
Q fixed	0.986	0.997	1.02	0.986	0.992	0.983	0.863	1.19	1.18	0.977
R fixed	0.822	0.851	0.899	0.819	0.863	0.744	0.818	0.976	0.891	0.935
V fixed	0.739	0.707	0.766	0.718	0.747	1.03	0.758	0.802	0.759	0.702
W fixed	1.41	1.27	1.3	1.18	1.47	0.96	0.934	1.48	1.26	1.3
pThr fixed	1.42	1.51	1.34	1.12	1.01	1.72	1.35	1.53	1.52	1.45
pTyr fixed	1.23	1.36	1.41	1.14	1.31	1.71	1.63	1.64	1.36	1.47

PDHK3, construct: Full length, human (from UniProt Q15120)
relative phosphorylation
Conditions	at +1	at +2	at +3	at +4	at +5	at -1	at -2	at -3	at -4	at -5
A fixed	0.864	0.935	0.907	1.15	0.809	0.955	1.04	0.965	1.15	1.1
D fixed	1.32	1.44	1.3	1.46	1.44	1.19	1.1	1.17	1.1	1.09
E fixed	1.1	1.02	1.32	1.46	1.23	0.907	1.02	0.781	0.943	0.994
F fixed	0.733	0.957	0.902	0.883	0.884	0.734	0.863	0.82	0.811	0.999
G fixed	1.14	0.947	1.11	1.06	1.09	1.03	1.07	1.24	1.33	1.12
H fixed	0.976	1.03	0.971	1.07	0.992	0.908	0.901	0.76	0.958	1.06
I fixed	0.74	0.721	0.875	0.87	0.766	0.781	0.793	0.67	0.826	0.874
K fixed	1.02	0.994	0.862	0.886	0.842	1.22	1.15	1.17	1	1.09
L fixed	0.876	0.878	0.869	1.03	0.886	0.906	1.12	1	0.9	0.95
M fixed	0.895	0.784	1.03	0.855	0.873	0.765	0.875	0.745	0.843	0.779
N fixed	1.18	1.01	0.955	0.877	0.944	1.04	0.912	0.933	0.986	0.897
P fixed	1.15	1.14	0.994	1.09	1.01	1.26	1.39	1.71	1.09	1.08
Q fixed	1.1	0.957	0.916	0.855	0.986	1.08	0.825	1.04	0.995	0.978
R fixed	1.09	0.889	0.906	0.714	0.926	1.09	1.02	1.01	1.18	0.997
V fixed	0.722	0.908	0.836	0.781	0.778	0.898	0.911	0.885	0.827	0.844
W fixed	1.1	1.39	1.26	0.97	1.54	1.24	1.03	1.09	1.07	1.15
pThr fixed	1.23	1.1	1.23	1.5	1.23	1.05	0.926	1.01	0.884	0.839
pTyr fixed	1.22	1.04	1.01	1.05	1.42	0.948	0.814	0.789	0.694	0.754

PINK1, construct: Full length, Tribolium castaneum (from UniProt D6WMX4)
relative phosphorylation
Conditions	at +1	at +2	at +3	at +4	at +5	at -1	at -2	at -3	at -4	at -5
A fixed	0.901	0.835	0.881	0.879	0.893	0.907	0.869	0.893	0.948	0.916
D fixed	0.823	0.834	0.831	0.914	0.84	0.931	0.892	0.906	1.05	1.09
E fixed	0.789	0.792	0.875	0.938	0.813	1.22	0.916	0.938	1.42	1.04
F fixed	1.43	1.12	1.08	1.07	1.05	1.17	1.11	0.986	1.1	0.984
G fixed	0.902	0.767	0.78	0.909	0.88	1.15	0.931	0.838	0.884	0.936
H fixed	1.23	1.15	1.07	1.1	1.07	0.97	1.05	1.08	1.01	1.09
I fixed	0.847	0.804	0.852	0.84	0.832	1	0.922	0.781	0.868	0.888
K fixed	0.937	1.59	1.31	1.32	1.31	1	1.13	1.2	1.03	1.18
L fixed	0.737	0.831	0.881	0.882	0.876	0.814	0.889	0.862	0.793	0.82
M fixed	0.762	1.01	0.959	0.869	0.891	0.819	0.824	0.849	0.798	0.85
N fixed	0.936	1	0.91	0.954	1.02	0.948	1.21	0.981	0.871	0.893
P fixed	0.778	0.786	0.909	0.885	0.876	0.911	0.843	0.851	0.828	0.911
Q fixed	0.862	0.989	0.973	0.99	1.02	0.998	0.996	1.09	0.934	0.887
R fixed	1.16	1.71	1.61	1.57	1.68	1.3	1.36	1.82	1.35	1.35
V fixed	0.784	0.805	0.857	0.797	0.816	0.853	0.911	0.819	0.817	0.874
W fixed	2.12	0.972	1.23	1.09	1.15	1	1.14	1.11	1.31	1.29
pThr fixed	0.939	0.843	0.735	0.99	0.826	1.29	0.841	1.06	1.04	1.06
pTyr fixed	1.3	0.83	0.872	1.26	0.978	1.25	0.995	1.2	1.16	1.11
